Assay results reported in US20240199746A1 (published 2024).
Residue numbers refer to the chain shown, from its start. Names may count otherwise.

B1: HC-W110H (antibody, V domains shown)
VH: EVQLVQSGAEVKKPGATVKISCKVSGYSFTGHTMNWIRQPPGKGLEWIGLIKPSNGGTSYNQKFKGRVTISADKSISTAYLQWSSLKASDTAMYYCAHGHYESYFAMDYHGQGTLVTVSS
VL: DIQMTQSPSSLSASVGDRVTITCKASQDVSSAVAWYQQKPGQAPRLLIYWASTRHTGVPSRFSGSGSGTEFTLTISSLQPDDFATYYCQEHFSTPLTFGQGTKVEIK
B2: HC-W110N (antibody, V domains shown)
VH: B1 VH with H110N
VL: B1 VL
B3: HC-W110R (antibody, V domains shown)
VH: B1 VH with H110R
VL: B1 VL
B4: HC-W110L (antibody, V domains shown)
VH: B1 VH with H110L
VL: B1 VL
B5: HC-E102L (antibody, V domains shown)
VH: B1 VH with E102L, H110W
VL: B1 VL
notes: CPE single point mutant
B6: HC-W110P (antibody, V domains shown)
VH: B1 VH with H110P
VL: B1 VL
B7: HC-W110T (antibody, V domains shown)
VH: B1 VH with H110T
VL: B1 VL
B8: HC-W110A (antibody, V domains shown)
VH: B1 VH with H110A
VL: B1 VL
B9: HC-P053N (antibody, V domains shown)
VH: B1 VH with P53N, H110W
VL: B1 VL
notes: CPE single point mutant
B10: HC-B102D (antibody, V domains shown)
VH: B1 VH with E102D, H110W
VL: B1 VL
notes: CPE single point mutant; printed B102, read as E102 (other rows print HC-E102x)
B11: HC-B102A (antibody, V domains shown)
VH: B1 VH with E102A, H110W
VL: B1 VL
notes: as for B10
B12: HC-M107E (antibody, V domains shown)
VH: B1 VH with M107E, H110W
VL: B1 VL
notes: CPE single point mutant
B13: HC-F105N (antibody, V domains shown)
VH: B1 VH with F105N, H110W
VL: B1 VL
notes: CPE single point mutant
B14: HC-B102I (antibody, V domains shown)
VH: B1 VH with E102I, H110W
VL: B1 VL
notes: as for B10
B15: HC-S059I (antibody, V domains shown)
VH: B1 VH with S59I, H110W
VL: B1 VL
notes: CPE single point mutant
B16: HC-B102H (antibody, V domains shown)
VH: B1 VH with E102H, H110W
VL: B1 VL
notes: as for B10
B17: HC-F105T (antibody, V domains shown)
VH: B1 VH with F105T, H110W
VL: B1 VL
notes: CPE single point mutant
B18: HC-B102F (antibody, V domains shown)
VH: B1 VH with E102F, H110W
VL: B1 VL
notes: as for B10
B19: HC-M107F (antibody, V domains shown)
VH: B1 VH with M107F, H110W
VL: B1 VL
notes: CPE single point mutant
B20: HC-S059T (antibody, V domains shown)
VH: B1 VH with S59T, H110W
VL: B1 VL
notes: CPE single point mutant
B21: HC-E102M (antibody, V domains shown)
VH: B1 VH with E102M, H110W
VL: B1 VL
notes: CPE single point mutant
B22: HC-A106D (antibody, V domains shown)
VH: B1 VH with A106D, H110W
VL: B1 VL
notes: CPE single point mutant
B23: HC-H100R (antibody, V domains shown)
VH: B1 VH with H100R, H110W
VL: B1 VL
notes: CPE single point mutant
B24: HC-H100D (antibody, V domains shown)
VH: B1 VH with H100D, H110W
VL: B1 VL
notes: CPE single point mutant
B25: HC-E102V (antibody, V domains shown)
VH: B1 VH with E102V, H110W
VL: B1 VL
notes: CPE single point mutant
B26: HC-F105V (antibody, V domains shown)
VH: B1 VH with F105V, H110W
VL: B1 VL
notes: CPE single point mutant
B27: HC-F105S (antibody, V domains shown)
VH: B1 VH with F105S, H110W
VL: B1 VL
notes: CPE single point mutant
B28: HC-B102G (antibody, V domains shown)
VH: B1 VH with E102G, H110W
VL: B1 VL
notes: as for B10
B29: HC-A106L (antibody, V domains shown)
VH: B1 VH with A106L, H110W
VL: B1 VL
notes: CPE single point mutant
B30: HC-A106G (antibody, V domains shown)
VH: B1 VH with A106G, H110W
VL: B1 VL
notes: CPE single point mutant
B31: HC-N035I (antibody, V domains shown)
VH: B1 VH with N35I, H110W
VL: B1 VL
notes: CPE single point mutant
B32: HC-H100P (antibody, V domains shown)
VH: B1 VH with H100P, H110W
VL: B1 VL
notes: CPE single point mutant
B33: HC-E102Y (antibody, V domains shown)
VH: B1 VH with E102Y, H110W
VL: B1 VL
notes: CPE single point mutant

Experiments:
[1] = target: T1, Ax1 protein, extracellular domain (human, UniProt P30530 26-451); test: ELISA, mutant diluted 1:3
T1 construct: extracellular domain; also called Axl; Ark
T1 sequence (looked up): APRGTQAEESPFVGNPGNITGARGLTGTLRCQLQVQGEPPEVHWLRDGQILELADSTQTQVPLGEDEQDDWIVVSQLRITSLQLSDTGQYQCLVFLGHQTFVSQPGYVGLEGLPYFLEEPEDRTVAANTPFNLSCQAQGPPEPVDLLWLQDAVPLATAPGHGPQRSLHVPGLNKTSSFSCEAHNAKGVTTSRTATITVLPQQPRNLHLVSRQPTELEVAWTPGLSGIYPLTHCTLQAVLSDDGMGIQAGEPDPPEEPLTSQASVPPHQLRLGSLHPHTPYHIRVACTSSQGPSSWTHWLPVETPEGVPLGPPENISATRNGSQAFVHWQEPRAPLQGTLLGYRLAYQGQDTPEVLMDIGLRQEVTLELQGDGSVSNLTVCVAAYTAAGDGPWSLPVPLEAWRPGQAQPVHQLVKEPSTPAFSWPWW
Source text: (§1) The DNA encoding the wild-type antibody was evolved to generate a mutant antibody library using Comprehensive Positional Evolution (CPE), which each position in the template antibody is randomized one at a time. Each mutant antibody in the library has only one single point mutation. The mutant antibodies in the library were generated by simultaneously screening for selective binding affinity to Ax1 at pH 6.0 over pH 7.4 by ELISA. Two mutant antibody dilutions were used: 1:3 and 1:9 dilutions.

[2] = target: T1, Ax1 protein, extracellular domain; test: ELISA, mutant diluted 1:9
Source text: as §1

Binder	Affinity ELISA CPE mutant ratio (1:3, pH 6.0/7.4) [1]	Affinity ELISA CPE mutant ratio (1:9, pH 6.0/7.4) [2]
B1	7.99	0.932
B2	4.3	0.8
B3	5.99	1.06
B4	8.22	0.924
B5	3.27	2.7
B6	6.49	2.15
B7	7.47	1.37
B8	7.31	1.2
B9	1.4	1.89
B10	2.67	2.85
B11	1.53	1.69
B12	2.16	1.36
B13	2.36	2.64
B14	2.02	1.7
B15	30.5	2.06
B16	2.08	2.31
B17	3.46	4.02

Binder	Affinity ELISA CPE mutant ratio (1:3, pH 6.0/7.4) [1]	Affinity ELISA CPE mutant ratio (1:9, pH 6.0/7.4) [2]
B18	1.88	1.36
B19	20.6	1.09
B20	1.02	1.93
B21	2.08	2.36
B22	3.39	2.51
B23	1.88	2.51
B24	2.42	3.09
B25	1.93	2.51
B26	2.43	2.8
B27	3.9	4.54
B28	1.8	2.68
B29	21.5	1.61
B30	1.52	2.2
B31	2.81	1.12
B32	2.58	1.18
B33	2.61	1.99
